Measured values taken from PMC5516325, “Sequence-based identification of inositol monophosphatase-like histidinol-phosphate phosphatases (HisN) in Corynebacterium glutamicum, Actinobacteria, and beyond” (BMC Microbiology, 2017).

Key:
Assay type in all cases: biochemical, Corynebacterium glutamicum
Cg0911 [1] = tested on: T1, Cg0911; experiment: phosphate release from HolP, malachite green; activation; details: activator (also reaction product); 500 μM HolP, 5 mM MgSO4, 1 M triethanolamine, pH 7.35, 30 °C; read-out: Half maximal stimulation
T1 construct: tag-free (C-terminal intein tag self-cleaved, IMPACT system), expressed in E. coli ER2566

Cg0911 [2] = tested on: T1, Cg0911; experiment: phosphate release, malachite green; Hill equation fit; details: 5 mM MgSO4, 100 mM triethanolamine, pH 7.35, 30 °C
From the text: phosphate release, malachite green; Hill equation fit on Cg0911

[3] = substrate: N[C@H](COP(=O)(O)O)Cc1c[nH]cn1; experiment: as above; details: 5 mM MgSO4, 100 mM triethanolamine, pH 7.35, 30 °C
From the text: phosphate release, malachite green; Hill equation fit on HisN (HisNCg)

## N[C@H](CO)Cc1c[nH]cn1 [L-histidinol]
Cg0911 [1]
  EC50: 860 ± 60 µM

## N[C@H](COP(=O)(O)O)Cc1c[nH]cn1 [L-histidinol-phosphate]
Cg0911 [2]
  Km: 638 ± 70.5 µM

B1: HisN (HisNCg) (Corynebacterium glutamicum ATCC 13032) (protein)
chain: MSKYADDLALALELAELADSITLDRFEASDLEVSSKPDMTPVSDADLATEEALREKIATARPADSILGEEFGGDVEFSGRQWIIDPIDGTKNYVRGVPVWATLIALLDNGKPVAGVISAPALARRWWASEGAGAWRTFNGSSPRKLSVSQVSKLDDASLSFSSLSGWAERDLRDQFVSLTDTTWRLRGYGDFFSYCLVAEGAVDIAAEPEVSLWDLAPLSILVTEAGGKFTSLAGVDGPHGGDAVATNGILHDETLDRLK
notes: tag-free (C-terminal intein tag self-cleaved, IMPACT system, NEB), expressed in E. coli ER2566
[3]
  Km: 23.6 ± 1.4 µM
  kcat: 1.04 ± 0.06 s⁻¹
  kcat/Km: 44100 M⁻¹ s⁻¹
